The values below come from publication PMC6588349, “Conformational dynamics between transmembrane domains and allosteric modulation of a metabotropic glutamate receptor” (eLife, 2019).

The labels stand for the following.
B1: SNAP-mGluR3-TMD (domain or fragment, rat, UniProt P31422 567-879, looked up)
chain: EDYIKWEDAWAIGPVTIACLGFLCTCIVITVFIKHNNTPLVKASGRELCYILLFGVSLSYCMTFFFIAKPSPVICALRRLGLGTSFAICYSALLTKTNCIARIFDGVKNGAQRPKFISPSSQVFICLGLILVQIVMVSVWLILETPGTRRYTLPEKRETVILKCNVKDSSMLISLTYDVVLVILCTVYAFKTRKCPENFNEAKFIGFTMYTTCIIWLAFLPIFYVTSSDYRVQTTTMCISVSLSGFVVLGCLFAPKVHIVLFQPQKNVVTHRLHLNRFSVSGTATTYSQSSASTYVPTVCNGREVLDSTTSSL
modifications: SNAP tag labelled with BG-LD555
notes: mGluR3, rat; LBD and CRD deleted; following the SNAP tag the receptor starts at E567; Made by modifying the full-length SNAP-tagged cDNA of Doumazane et al., 2011; source: HEK 293T, transfected, surface-labelled, in detergent lysate; not shown: HA, N-terminal, kept; SNAP, N-terminal, kept
B2: SNAP-mGluR2-TMD (HA-SNAP-tagged isolated transmembrane domain of mGluR2) (domain or fragment, rat, UniProt P31421 558-872, looked up)
chain: QEYIRWGDAWAVGPVTIACLGALATLFVLGVFVRHNATPVVKASGRELCYILLGGVFLCYCMTFVFIAKPSTAVCTLRRLGLGTAFSVCYSALLTKTNRIARIFGGAREGAQRPRFISPASQVAICLALISGQLLIVAAWLVVEAPGTGKETAPERREVVTLRCNHRDASMLGSLAYNVLLIALCTLYAFKTRKCPENFNEAKFIGFTMYTTCIIWLAFLPIFYVTSSDYRVQTTTMCVSVSLSGSVVLGCLFAPKLHIILFQPQKNVVSHRAPTSRFGSAAPRASANLGQGSGSQFVPTVCNGREVVDSTTSSL
modifications: SNAP tag labelled with BG-LD555 (SiMPull); with BG-LD655 as acceptor or with a mixture of BG-LD555 and BG-LD655 (FRET)
notes: mGluR2, rat; LBD and CRD deleted; following the SNAP tag the receptor starts at Q558; Made by modifying the full-length SNAP-tagged cDNA of Doumazane et al., 2011; also called HA-SNAP-mGluR2-TMD; isolated mGluR2 TMD; source: HEK 293T, transfected; surface-labelled, in detergent lysate (SiMPull); on living cells (FRET); not shown: HA, N-terminal, kept; SNAP, N-terminal, kept
B3: SNAP-mGluR1-TMD (domain or fragment, rat, UniProt P23385 583-1199, looked up)
chain: VRYLEWSDIESIIAIAFSCLGILVTLFVTLIFVLYRDTPVVKSSSRELCYIILAGIFLGYVCPFTLIAKPTTTSCYLQRLLVGLSSAMCYSALVTKTNRIARILAGSKKKICTRKPRFMSAWAQVIIASILISVQLTLVVTLIIMEPPMPILSYPSIKEVYLICNTSNLGVVAPVGYNGLLIMSCTYYAFKTRNVPANFNEAKYIAFTMYTTCIIWLAFVPIYFGSNYKIITTCFAVSLSVTVALGCMFTPKMYIIIAKPERNVRSAFTTSDVVRMHVGDGKLPCRSNTFLNIFRRKKPGAGNANSNGKSVSWSEPGGRQAPKGQHVWQRLSVHVKTNETACNQTAVIKPLTKSYQGSGKSLTFSDASTKTLYNVEEEDNTPSAHFSPPSSPSMVVHRRGPPVATTPPLPPHLTAEETPLFLADSVIPKGLPPPLPQQQPQQPPPQQPPQQPKSLMDQLQGVVTNFGSGIPDFHAVLAGPGTPGNSLRSLYPPPPPPQHLQMLPLHLSTFQEESISPPGEDIDDDSERFKLLQEFVYEREGNTEEDELEEEEDLPTASKLTPEDSPALTPPSPFRDSVASGSSVPSSPVSESVLCTPPNVTYASVILRDYKQSSSTL
modifications: SNAP tag labelled with BG-LD555
notes: LBD and CRD deleted; following the SNAP tag the receptor starts at V583; Made by modifying the full-length SNAP-tagged cDNA of Doumazane et al., 2011; source: HEK 293T, transfected, surface-labelled, in detergent lysate; not shown: HA, N-terminal, kept; SNAP, N-terminal, kept
B4: SNAP-tagged full-length mGluR2 (HA-SNAP-mGluR2) (receptor, rat, UniProt P31421 19-872, looked up)
chain: EGPAKKVLTLEGDLVLGGLFPVHQKGGPAEECGPVNEHRGIQRLEAMLFALDRINRDPHLLPGVRLGAHILDSCSKDTHALEQALDFVRASLSRGADGSRHICPDGSYATHSDAPTAVTGVIGGSYSDVSIQVANLLRLFQIPQISYASTSAKLSDKSRYDYFARTVPPDFFQAKAMAEILRFFNWTYVSTVASEGDYGETGIEAFELEARARNICVATSEKVGRAMSRAAFEGVVRALLQKPSARVAVLFTRSEDARELLAATQRLNASFTWVASDGWGALESVVAGSERAAEGAITIELASYPISDFASYFQSLDPWNNSRNPWFREFWEERFHCSFRQRDCAAHSLRAVPFEQESKIMFVVNAVYAMAHALHNMHRALCPNTTHLCDAMRPVNGRRLYKDFVLNVKFDAPFRPADTDDEVRFDRFGDGIGRYNIFTYLRAGSGRYRYQKVGYWAEGLTLDTSFIPWASPSAGPLPASRCSEPCLQNEVKSVQPGEVCCWLCIPCQPYEYRLDEFTCADCGLGYWPNASLTGCFELPQEYIRWGDAWAVGPVTIACLGALATLFVLGVFVRHNATPVVKASGRELCYILLGGVFLCYCMTFVFIAKPSTAVCTLRRLGLGTAFSVCYSALLTKTNRIARIFGGAREGAQRPRFISPASQVAICLALISGQLLIVAAWLVVEAPGTGKETAPERREVVTLRCNHRDASMLGSLAYNVLLIALCTLYAFKTRKCPENFNEAKFIGFTMYTTCIIWLAFLPIFYVTSSDYRVQTTTMCVSVSLSGSVVLGCLFAPKLHIILFQPQKNVVSHRAPTSRFGSAAPRASANLGQGSGSQFVPTVCNGREVVDSTTSSL
modifications: SNAP tag labelled with BG-LD555 (SiMPull); SNAP tag labelled with donor and acceptor fluorophores (inter-LBD FRET)
notes: metabotropic glutamate receptor 2 (mGluR2), rat, full-length, behind N-terminal HA and SNAP tags; construct of Doumazane et al., 2011; also called mGluR2-WT; WT-SNAP-mGluR2; source: HEK 293T, transfected; surface-labelled, in detergent lysate (SiMPull); on living cells (FRET); not shown: HA, N-terminal, kept; SNAP, N-terminal, kept
B5: SNAP-mGluR5-TMD (domain or fragment, human, UniProt P41594 570-1212, looked up)
chain: VQYLRWGDPEPIAAVVFACLGLLATLFVTVVFIIYRDTPVVKSSSRELCYIILAGICLGYLCTFCLIAKPKQIYCYLQRIGIGLSPAMSYSALVTKTNRIARILAGSKKKICTKKPRFMSACAQLVIAFILICIQLGIIVALFIMEPPDIMHDYPSIREVYLICNTTNLGVVTPLGYNGLLILSCTFYAFKTRNVPANFNEAKYIAFTMYTTCIIWLAFVPIYFGSNYKIITMCFSVSLSATVALGCMFVPKVYIILAKPERNVRSAFTTSTVVRMHVGDGKSSSAASRSSSLVNLWKRRGSSGETLRYKDRRLAQHKSEIECFTPKGSMGNGGRATMSSSNGKSVTWAQNEKSSRGQHLWQRLSIHINKKENPNQTAVIKPFPKSTESRGLGAGAGAGGSAGGVGATGGAGCAGAGPGGPESPDAGPKALYDVAEAEEHFPAPARPRSPSPISTLSHRAGSASRTDDDVPSLHSEPVARSSSSQGSLMEQISSVVTRFTANISELNSMMLSTAAPSPGVGAPLCSSYLIPKEIQLPTTMTTFAEIQPLPAIEVTGGAQPAAGAQAAGDAARESPAAGPEAAAAKPDLEELVALTPPSPFRDSVDSGSTTPNSPVSESALCIPSSPKYDTLIIRDYTQSSSSL
modifications: SNAP tag labelled with BG-LD555 (SiMPull); with donor and acceptor fluorophores (FRET)
notes: mGluR5, human; LBD and CRD deleted; following the SNAP tag the receptor starts at V570; Made by modifying the full-length SNAP-tagged cDNA of Doumazane et al., 2011; source: HEK 293T, transfected; surface-labelled, in detergent lysate (SiMPull); on living cells (FRET); not shown: HA, N-terminal, kept; SNAP, N-terminal, kept

The data set deals with the molecule itself. The experiment in a line: single-molecule pulldown (SiMPull) with subunit counting by photobleaching steps; surface receptors labelled with BG-LD555 on HEK 293T cells, lysed in 1.2% IGEPAL, diluted in 0.1% IGEPAL, immobilised by biotinylated anti-HA antibody on a PEG-passivated coverslip, TIRF imaging; SNAP labelling efficiency ~80%; background two-step bleaching ~5-10%.
By stoichiometry N is commonly meant a count of units in the complex or per binding partner. On to B1, for which the “percent of spots bleaching in two steps” value was around 30% and the “stoichiometry N” value was determined as 2.

On to B2, for which the “percent of spots bleaching in two steps” value is around 45% and the “stoichiometry N” value was 2.

Take B3: the “percent of spots bleaching in two steps” value is around 30% and the “stoichiometry N” value stood at 2.

With B4, the “percent of spots bleaching in two steps” value was around 60% and the “stoichiometry N” value was 2.

Take B5: the “percent of spots bleaching in two steps” value was around 30% and the “stoichiometry N” value worked out at 2.
